From patent publication US20200281934A1, “SSTR-TARGETED CONJUGATES AND FORMULATIONS THEREOF” (TARVEDA THERAPEUTICS, INC., priority 2017, published 2020)
Like-named read-outs stand apart in the source and are kept apart here.

Assays:
Assay type in all cases: in vivo, human
[1] = Phase 1 plasma pharmacokinetics of Conjugate 57 during dose escalation; conditions: for AUC(0-inf) / Cmax / clearance / Vd: mean, 1 hour IV infusion; for Vd: read-out: Vz
Procedure: (§1) The acetate salt of Conjugate 57 was administered to a patient as a 1 hour IV infusion once on an every 3 week schedule to escalating cohorts of 2-6 patients. Patients received Conjugate 57 treatment for 3 weeks, 6 weeks, 9 weeks, 12 weeks, 15 weeks, 18 weeks, 21 weeks, 24 weeks, 27 weeks, 30 weeks, 33 weeks, 36 weeks, 39 weeks, 42 weeks, 45 weeks, 48 weeks, 51 weeks, 54 weeks, 57 weeks, or 60 weeks. There were 7 Cohorts with the starting does of 1.0 mg and the highest dose of 25.0 mg. The doses of Conjugate 57 given to pateints were flat: 1.0 mg, 2.0 mg, 4.0 mg, 8.0 mg, 12.0 mg, 18.0 mg and 25.0 mg. Conjugate 57 concentrate for Solution for Injection is a sterile concentrated liquid containing Conjugate 57, mannitol, Polyoxyl 15 Hydroxystearate and acetate buffer. Each dosage unit contains 2.5 mg of Conjugate 57 (free-form) per mL, 50 mg/mL mannitol, 20 mg/mL Polyoxyl 15 Hydroxystearate and pH 4.0-4.8 acetate buffer in a stoppered 10 mL clear vial. Prior to administration, the product was diluted with 5% Mannitol Injection USP. The resulting diluted Conjugate 57 formulation can be infused intravenously.
Serial PK samples were collected prior, during and up to 10 hours after the start of infusion on Day 1 of Cycle 1 and Cycle 3.
Cmax is the maximum (or peak) serum concentration of a drug after the drug has been administrated and before the administration of a second dose. Area under curve to infinity (AUCinf) is a is a theoretical measure of the total exposure of drug to the body from administration till all the drug is eliminated. Clearance (CL) is the volume of plasma cleared of drug per unit time. It is an index of how well a drug is removed irreversibly from circulation. Volume of distribution (Vz) was also measured. Vz represents the degree to which a drug is distributed in body tissue rather than the plasma.

[2] = Phase 1 safety, tolerability and maximum tolerated dose; conditions: patients
Source text: The objectives of Phase 1 were to assess the safety and tolerability and determine the maximum tolerated dose and recommended Phase 2 dose of Conjugate 57 when administered intravenously on an every 3 week schedule in patients with somatostatin receptor 2 expressing advanced cancers (including gastroenteropancreatic or lung or thymus or other neuroendocrine tumors or small cell lung cancer or large cell neuroendocrine carcinoma of the lung). It also characterized both acute and chronic toxicities of Conjugate 57, characterized key pharmacokinetic parameters of Conjugate 57, DM1, and peptide ligand from Conjugate 57, assessed the potential of Conjugate 57 to induce anti-drug antibodies, and assessed preliminary anti-tumor activity by using standard tumor response criteria (RECIST 1.1) and pharmacodynamic (PDc) biomarker changes that include chromogranin A (CgA), neuron-specific enolase (NSE), and circulating tumor cells (CTCs) in the blood, and 5-hydroxyindoleacetic acid (5-HIAA) in the urine. In addition, the study explored the relationships between tumor SSTR2 expression as measured by multiple modalities (somatostatin analog radioimaging, immunohistochemistry, CTCs, or exosome analyses) and PK, efficacy, safety, anti-Conjugate 57 antibodies, and PDc biomarker changes in the blood. […]
(§2) Disease response was assessed by duration of response and RECIST 1.1. […]

[3] = test system: somatostatin receptor 2 expressing advanced cancers; test: Phase 1 preliminary anti-tumor activity (RECIST 1.1, duration of response)
Source text: (§3) The objectives of Phase 1 were to assess the safety and tolerability and determine the maximum tolerated dose and recommended Phase 2 dose of Conjugate 57 when administered intravenously on an every 3 week schedule in patients with somatostatin receptor 2 expressing advanced cancers (including gastroenteropancreatic or lung or thymus or other neuroendocrine tumors or small cell lung cancer or large cell neuroendocrine carcinoma of the lung). It also characterized both acute and chronic toxicities of Conjugate 57, characterized key pharmacokinetic parameters of Conjugate 57, DM1, and peptide ligand from Conjugate 57, assessed the potential of Conjugate 57 to induce anti-drug antibodies, and assessed preliminary anti-tumor activity by using standard tumor response criteria (RECIST 1.1) and pharmacodynamic (PDc) biomarker changes that include chromogranin A (CgA), neuron-specific enolase (NSE), and circulating tumor cells (CTCs) in the blood, and 5-hydroxyindoleacetic acid (5-HIAA) in the urine. In addition, the study explored the relationships between tumor SSTR2 expression as measured by multiple modalities (somatostatin analog radioimaging, immunohistochemistry, CTCs, or exosome analyses) and PK, efficacy, safety, anti-Conjugate 57 antibodies, and PDc biomarker changes in the blood. Phase 1 study had two parts: Phase 1 Part A (dose escalation) and Phase 1 Part B (early expansion).
All patients were required to have SSTR2 expressing tumors. Tumor SSTR2 expression was determined by imaging within the preceding approximately 6 months, with Octreoscan or ^68Ga-DOTATATE, ^68Ga-DOTATOC, or ^68Ga-DOTANOC.
as §1, with “The resulting diluted Conjugate 57 formulation can be infused intravenously.” left out
as §2

GI (large bowel) NET = test: Circulating biomarkers of neuroendocrine tumors and symptoms in a GI NET patient; conditions: 18 mg
Source text: as §3
A patient with well differentiated, intermediate grade GI (large bowel) NET with metastasis to lymph nodes, bone, lung, and brain was treated with Conjugate 57 at 18 mg. Their tumors progressed on all prior therapies: lanreotide, mTOR inhibitor, and/or 177Lu-DOTATATE. […] Circulating biomarkers of neuroendocrine tumors (NETs), including chromogranin A (CgA), neuron specific enolase (NSE) and circulating tumor cells (CTC), were collected and measured over time. Increased CgA is predictive of poor morphological response, progression free survival (PFS), and overall survival (OS) in pancreatic NETs. Decline in plasma concentration of NSE has been associated with response to treatment. Changes in CTCs has been associated with response to treatment in patients with NETs.

[4] = human, plasma, patients, dose 1 mg
[5] = human, plasma, patients, dose 2 mg
[6] = human, plasma, patients, dose 4 mg
[7] = human, plasma, patients, dose 8 mg
[8] = human, plasma, patients, dose 12 mg
[9] = human, plasma, patients, dose 18 mg
[10] = human, plasma, patients, dose 25 mg

Which “AUCinf relative to efficacious exposure threshold seen in pre-clinical xenograft studies of SCLC models” value ([1]; 12 mg and higher dose cohorts) does the source give for `COc1cc2cc(c1Cl)N(C)C(=O)C[C@H](OC(=O)[C@H](C)N(C)C(=O)CCSSC[C@H](NC(=O)[C@@H]1CSSC[C@H](NC(=O)[C@H](N)Cc3ccccc3)C(=O)N[C@@H](Cc3ccc(O)cc3)C(=O)N[C@H](Cc3c[nH]c4ccccc34)C(=O)N[C@@H](CCCCN)C(=O)N[C@@H]([C@@H](C)O)C(=O)N1)C(N)=O)[C@]1(C)O[C@H]1[C@H](C)[C@@H]1C[C@@](O)(NC(=O)O1)[C@H](OC)/C=C/C=C(\C)C2` [Conjugate 57] here?
Its value is “above efficacious exposure threshold”.

And the half-life ([1]; human, intravenous, plasma, patients, across all dose cohorts, read-out: Median t½ (half-life) (converted))?
Its half-life is 102 min.

And the AUC(0-inf) [1, 4]?
The AUC(0-inf) was 0.0146 µM·h.

What about the Cmax [1, 4] of the same compound?
Its Cmax is 7.47 nM.

What about the clearance [1, 4] of the same compound?
Its clearance is 633 mL/min.

What about the Vd [1, 4] of the same compound?
Its Vd is 65 L.

And the AUC(0-inf) [1, 5]?
The AUC(0-inf) was 0.0379 µM·h.

And the Cmax [1, 5]?
Its Cmax is 20.5 nM.

What about the clearance [1, 5] of the same compound?
Its clearance is 583 mL/min.

And the Vd [1, 5]?
The Vd was 80 L.

And the AUC(0-inf) [1, 6]?
The AUC(0-inf) was 0.118 µM·h.

And the Cmax [1, 6]?
The Cmax was 74.3 nM.

And the clearance [1, 6]?
Its clearance is 333 mL/min.

And the Vd [1, 6]?
The Vd was 60 L.

What about the AUC(0-inf) [1, 7] of the same compound?
The AUC(0-inf) was 0.341 µM·h.

What about the Cmax [1, 7] of the same compound?
The Cmax was 186 nM.

What about the clearance [1, 7] of the same compound?
Its clearance is 250 mL/min.

What about the Vd [1, 7] of the same compound?
Its Vd is 37 L.

And the AUC(0-inf) [1, 8]?
The AUC(0-inf) was 0.584 µM·h.

And the Cmax [1, 8]?
Its Cmax is 293 nM.

What about the clearance [1, 8] of the same compound?
The clearance was 217 mL/min.

What about the Vd [1, 8] of the same compound?
The Vd was 33 L.

And the AUC(0-inf) [1, 9]?
The AUC(0-inf) was 0.666 µM·h.

What about the Cmax [1, 9] of the same compound?
The Cmax was 381 nM.

What about the clearance [1, 9] of the same compound?
Its clearance is 267 mL/min.

What about the Vd [1, 9] of the same compound?
The Vd was 36 L.

And the AUC(0-inf) [1, 10]?
The AUC(0-inf) was 1.31 µM·h.

And the Cmax [1, 10]?
The Cmax was 741 nM.

What about the clearance [1, 10] of the same compound?
Its clearance is 183 mL/min.

What about the Vd [1, 10] of the same compound?
Its Vd is 50 L.

And the tolerability ([2]; 1.0-25.0 mg IV every 3 weeks)?
Its tolerability is “well tolerated”.

And the “maximum tolerated dose (MTD)” value ([2]; IV infusion every 3 weeks, flat dose)?
The value was 18 mg.

And the “ongoing patients with SD for 44 and 45 weeks” value ([3]; NET patients)?
Its value is 2 patients.

And the “patients with stable disease (SD) at 9 weeks” value ([3]; among 15 NET patients evaluable for response)?
Its value is 11 patients.

What about the “patients with target lesion shrinkage” value ([3]; dose range 8-18 mg) of the same compound?
Its value is 3 patients.

And the “patients with SD sustained for 18-45 weeks” value ([3]; of the 11 NET patients with SD at 9 weeks)?
The value was 8 patients.

And the “disease related symptoms of flushing” value (GI (large bowel) NET)?
The value was “disappeared after first dose”.

And the “chromogranin A (CgA) level” value (GI (large bowel) NET; FIG. 2A)?
Its value is “decreased over time”.

What about the “neuron specific enolase (NSE) level” value (GI (large bowel) NET; FIG. 2B) of the same compound?
Its value is “decreased over time”.

And the “circulating tumor cells (CTC) level” value (GI (large bowel) NET; FIG. 2C)?
The value was “decreased over time”.
